T1: cynoFcγRIIb (Macaca fascicularis, UniProt A0A140HDP4)
T1 construct: extracellular region, C-terminal His- and GST-tag; also called cynomolgus monkey FcγRIIb
T1 sequence (receptor extracellular region): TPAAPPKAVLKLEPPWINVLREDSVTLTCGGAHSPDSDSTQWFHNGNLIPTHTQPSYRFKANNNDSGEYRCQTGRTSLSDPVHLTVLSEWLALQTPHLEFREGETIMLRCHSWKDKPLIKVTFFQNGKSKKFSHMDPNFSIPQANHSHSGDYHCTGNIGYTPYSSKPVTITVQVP

T2: human FcγRIIa (131R), His- and GST-tagged (human, UniProt P12318 34-217)
T2 construct: Expressed in HEK293T cells, purified by nickel chromatography; also called R131 FcγRIIa; not shown: 6xHis and GST tags of the pTT5 vector
T2 sequence (looked up): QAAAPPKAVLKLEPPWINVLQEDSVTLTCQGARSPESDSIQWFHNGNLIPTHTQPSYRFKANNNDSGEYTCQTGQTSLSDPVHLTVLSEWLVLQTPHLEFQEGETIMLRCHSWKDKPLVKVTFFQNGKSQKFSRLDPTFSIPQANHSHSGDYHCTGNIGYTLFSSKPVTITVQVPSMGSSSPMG

T3: human FcγRIIa (131H), His- and GST-tagged (human, UniProt P12318 34-217)
T3 construct: also called H131 FcγRIIa; HIIa; not shown: 6xHis and GST tags of the pTT5 vector
T3 sequence (looked up): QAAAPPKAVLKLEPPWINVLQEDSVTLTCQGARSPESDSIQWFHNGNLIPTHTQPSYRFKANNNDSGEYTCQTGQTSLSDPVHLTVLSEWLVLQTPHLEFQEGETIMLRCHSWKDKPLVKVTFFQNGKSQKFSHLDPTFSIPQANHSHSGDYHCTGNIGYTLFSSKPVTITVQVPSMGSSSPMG

T4: human FcγRIIb receptor protein (R&D Systems) (human, UniProt P31994 46-217)
T4 construct: Bought protein injected over captured antibody in Biacore; also called CD32b
T4 sequence (looked up): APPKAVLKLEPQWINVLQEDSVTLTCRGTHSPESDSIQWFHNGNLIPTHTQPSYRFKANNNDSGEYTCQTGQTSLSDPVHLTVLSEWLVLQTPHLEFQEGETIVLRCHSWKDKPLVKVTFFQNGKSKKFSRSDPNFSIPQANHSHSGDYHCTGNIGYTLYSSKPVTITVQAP

T5: mFcγRIIb (Mus musculus, UniProt P08101)
T5 construct: extracellular region, C-terminal His- and GST-tag; also called mouse FcγRII
T5 sequence (receptor extracellular region, looked up): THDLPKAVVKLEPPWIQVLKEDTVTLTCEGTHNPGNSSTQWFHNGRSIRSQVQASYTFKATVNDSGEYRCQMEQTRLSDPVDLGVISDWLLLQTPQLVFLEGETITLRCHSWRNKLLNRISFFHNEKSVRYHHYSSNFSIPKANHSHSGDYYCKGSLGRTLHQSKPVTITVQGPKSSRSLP

T6: mFcγRIV
T6 construct: also called mouse FcγRIV; not shown: C-terminal His and GST tags (named only on our card)
T6 chain: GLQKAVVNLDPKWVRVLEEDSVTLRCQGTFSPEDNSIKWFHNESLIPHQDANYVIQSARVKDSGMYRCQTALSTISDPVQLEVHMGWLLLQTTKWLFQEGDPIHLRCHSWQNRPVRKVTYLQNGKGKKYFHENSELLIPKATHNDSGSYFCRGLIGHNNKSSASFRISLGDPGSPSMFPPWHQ


Assays:
Assay in all cases: SPR
cynoFcγRIIb = biological target: T1, cynoFcγRIIb
cynoFcγRIIIa = biological target: T7, cynoFcγRIIIa (Macaca fascicularis, UniProt Q8SPW2)
T7 construct: extracellular region, C-terminal His- and GST-tag; also called cynomolgus monkey FcγRIIIa

[1] = biological target: T2, human FcγRIIa (131R), His- and …
[2] = biological target: T8, human FcγRI receptor protein (R&D Systems) (human, UniProt P12314 16-288)
T8 construct: also called soluble FcγRI; solFcγRI

[3] = biological target: T3, human FcγRIIa (131H), His- and …
[4] = biological target: T9, human FcγRIIIa (158V), His- and GST-tagged (human, UniProt P08637 17-208)
T9 construct: also called V158 FcγRIIIa; VIIIa; not shown: 6xHis and GST tags of the pTT5 vector

[5] = biological target: T4, human FcγRIIb receptor protein (R&D …)
mFcγRIIb = biological target: T5, mFcγRIIb
mFcγRIV = biological target: T6, mFcγRIV

T7 sequence (Q8SPW2 17-208): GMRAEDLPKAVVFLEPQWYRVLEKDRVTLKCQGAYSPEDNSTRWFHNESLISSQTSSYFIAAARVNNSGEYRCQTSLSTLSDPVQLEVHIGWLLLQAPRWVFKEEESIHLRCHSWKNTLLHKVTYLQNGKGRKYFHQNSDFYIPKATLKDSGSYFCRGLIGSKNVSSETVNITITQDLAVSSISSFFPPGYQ
T9 sequence (P08637 17-208 F176V): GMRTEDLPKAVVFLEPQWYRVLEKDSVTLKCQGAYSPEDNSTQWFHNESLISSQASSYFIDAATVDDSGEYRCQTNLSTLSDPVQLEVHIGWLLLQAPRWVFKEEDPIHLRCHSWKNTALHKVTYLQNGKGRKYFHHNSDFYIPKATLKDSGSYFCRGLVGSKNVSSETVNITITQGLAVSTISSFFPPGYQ
T8 sequence (P12314 16-288 limits assumed): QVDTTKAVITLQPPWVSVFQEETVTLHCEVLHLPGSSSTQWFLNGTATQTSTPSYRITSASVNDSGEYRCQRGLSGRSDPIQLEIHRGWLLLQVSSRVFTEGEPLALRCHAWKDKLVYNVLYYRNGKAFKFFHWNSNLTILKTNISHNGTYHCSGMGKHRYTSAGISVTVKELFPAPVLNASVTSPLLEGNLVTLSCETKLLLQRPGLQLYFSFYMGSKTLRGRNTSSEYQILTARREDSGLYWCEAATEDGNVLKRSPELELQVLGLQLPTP

Fold vs WT IgG1 (Kd) (cynoFcγRIIb)	Fold vs WT IgG1 (Kd) (cynoFcγRIIIa)	Fold vs WT IgG1 [1]	Kd [1]	Fold vs WT IgG1 [2]	Kd [2]	Fold vs WT IgG1 [3]	Kd [3]	Fold vs WT IgG1 [4]	Kd [4]	Fold vs WT IgG1 [5]	Kd [5]	Fold vs WT IgG1 (Kd) (mFcγRIIb)	Fold vs WT IgG1 (off-rate) (mFcγRIIb)	Fold vs WT IgG1 (Kd) (mFcγRIV)	Fold vs WT IgG1 (off-rate) (cynoFcγRIIb)	Fold vs WT IgG1 (off-rate) (mFcγRIV)	Fold vs WT IgG1 (off-rate) (cynoFcγRIIIa)	Binder
3.51 fold	1.04 fold	253 fold	3.4 nM	0.991 fold	0.333 nM	0.826 fold	783 nM	0.092 fold	2080 nM	344 fold	4.26 nM	–	–	–	–	–	–	S267E/H268E/L328F (antibody, human IgG1, kappa, HuAM4G7 anti-CD19 IgG1 (m1) with these Fc substitutions, EU index; copies: 2 + 2) heavy: EVQLVESGGGLVKPGGSLKLSCAASGYTFTSYVMHWVRQAPGKGLEWIGYINPYNDGTKYNEKFQGRVTISSDKSISTAYMELSSLRSEDTAMYYCARGTYYYGTRVFDYWGQGTLVTVSSASTKGPSVFPLAPSSKSTSGGTAALGCLVKDYFPEPVTVSWNSGALTSGVHTFPAVLQSSGLYSLSSVVTVPSSSLGTQTYICNVNHKPSNTKVDKKVEPKSCDKTHTCPPCPAPELLGGPSVFLFPPKPKDTLMISRTPEVTCVVVDVEEEDPEVKFNWYVDGVEVHNAKTKPREEQYNSTYRVVSVLTVLHQDWLNGKEYKCKVSNKAFPAPIEKTISKAKGQPREPQVYTLPPSREEMTKNQVSLTCLVKGFYPSDIAVEWESNGQPENNYKTTPPVLDSDGSFFLYSKLTVDKSRWQQGNVFSCSVMHEALHNHYTQKSLSLSPGK light: DIVMTQSPATLSLSPGERATLSCRSSKSLQNVNGNTYLYWFQQKPGQSPQLLIYRMSNLNSGVPDRFSGSGSGTEFTLTISSLEPEDFAVYYCMQHLEYPITFGAGTKLEIKRTVAAPSVFIFPPSDEQLKSGTASVVCLLNNFYPREAKVQWKVDNALQSGNSQESVTEQDSKDSTYSLSSTLTLSKADYEKHKVYACEVTHQGLSSPVTKSFNRGEC
1.47 fold	1.73 fold	–	–	–	–	–	–	–	–	7.68 fold	191 nM	3.22 fold	5.09 fold	0.443 fold	1.8 fold	–	–	H268D/A327D (antibody, human IgG1, kappa, HuAM4G7 anti-CD19 IgG1 (m1) with these Fc substitutions, EU index; copies: 2 + 2) heavy: not shown light: DIVMTQSPATLSLSPGERATLSCRSSKSLQNVNGNTYLYWFQQKPGQSPQLLIYRMSNLNSGVPDRFSGSGSGTEFTLTISSLEPEDFAVYYCMQHLEYPITFGAGTKLEIKRTVAAPSVFIFPPSDEQLKSGTASVVCLLNNFYPREAKVQWKVDNALQSGNSQESVTEQDSKDSTYSLSSTLTLSKADYEKHKVYACEVTHQGLSSPVTKSFNRGEC
–	–	0.319 fold	2690 nM	–	–	–	–	–	–	0.353 fold	4160 nM	–	1.45 fold	–	0.903 fold	1.23 fold	0.443 fold	A327G (antibody, human IgG1, kappa, HuAM4G7 anti-CD19 IgG1 (m1) with this Fc substitution, EU index; copies: 2 + 2) heavy: not shown light: DIVMTQSPATLSLSPGERATLSCRSSKSLQNVNGNTYLYWFQQKPGQSPQLLIYRMSNLNSGVPDRFSGSGSGTEFTLTISSLEPEDFAVYYCMQHLEYPITFGAGTKLEIKRTVAAPSVFIFPPSDEQLKSGTASVVCLLNNFYPREAKVQWKVDNALQSGNSQESVTEQDSKDSTYSLSSTLTLSKADYEKHKVYACEVTHQGLSSPVTKSFNRGEC
–	–	1.79 fold	481 nM	–	–	–	–	–	–	1.17 fold	1250 nM	–	1.6 fold	–	1.34 fold	1.02 fold	0.99 fold	H268N (antibody, human IgG1, kappa, HuAM4G7 anti-CD19 IgG1 (m1) with this Fc substitution, EU index; copies: 2 + 2) heavy: not shown light: DIVMTQSPATLSLSPGERATLSCRSSKSLQNVNGNTYLYWFQQKPGQSPQLLIYRMSNLNSGVPDRFSGSGSGTEFTLTISSLEPEDFAVYYCMQHLEYPITFGAGTKLEIKRTVAAPSVFIFPPSDEQLKSGTASVVCLLNNFYPREAKVQWKVDNALQSGNSQESVTEQDSKDSTYSLSSTLTLSKADYEKHKVYACEVTHQGLSSPVTKSFNRGEC
–	–	–	–	–	–	–	–	–	–	12.1 fold	121 nM	–	0.881 fold	–	0.367 fold	0.454 fold	0.124 fold	S267E/L328Q (antibody, human IgG1, kappa, HuAM4G7 anti-CD19 IgG1 (m1) with these Fc substitutions, EU index; copies: 2 + 2) heavy: not shown light: DIVMTQSPATLSLSPGERATLSCRSSKSLQNVNGNTYLYWFQQKPGQSPQLLIYRMSNLNSGVPDRFSGSGSGTEFTLTISSLEPEDFAVYYCMQHLEYPITFGAGTKLEIKRTVAAPSVFIFPPSDEQLKSGTASVVCLLNNFYPREAKVQWKVDNALQSGNSQESVTEQDSKDSTYSLSSTLTLSKADYEKHKVYACEVTHQGLSSPVTKSFNRGEC

More lines, now with the values behind:

Binder	Fold vs WT IgG1 (Kd) (cynoFcγRIIb)	Fold vs WT IgG1 (Kd) (cynoFcγRIIIa)	Fold vs WT IgG1 [1]	Kd [1]	Fold vs WT IgG1 [2]	Kd [2]	Fold vs WT IgG1 [3]	Kd [3]	Fold vs WT IgG1 [4]	Kd [4]	Fold vs WT IgG1 [5]	Kd [5]	Fold vs WT IgG1 (Kd) (mFcγRIIb)	Fold vs WT IgG1 (off-rate) (mFcγRIIb)	Fold vs WT IgG1 (Kd) (mFcγRIV)	Fold vs WT IgG1 (off-rate) (cynoFcγRIIb)	Fold vs WT IgG1 (off-rate) (mFcγRIV)	Fold vs WT IgG1 (off-rate) (cynoFcγRIIIa)
D265E (antibody, human IgG1, kappa, HuAM4G7 anti-CD19 IgG1 (m1) with this Fc substitution, EU index; copies: 2 + 2) heavy: not shown light: DIVMTQSPATLSLSPGERATLSCRSSKSLQNVNGNTYLYWFQQKPGQSPQLLIYRMSNLNSGVPDRFSGSGSGTEFTLTISSLEPEDFAVYYCMQHLEYPITFGAGTKLEIKRTVAAPSVFIFPPSDEQLKSGTASVVCLLNNFYPREAKVQWKVDNALQSGNSQESVTEQDSKDSTYSLSSTLTLSKADYEKHKVYACEVTHQGLSSPVTKSFNRGEC	–	–	0.307 fold	2790 nM	–	–	–	–	–	–	0.417 fold	3520 nM	–	0.833 fold	–	0.648 fold	0.526 fold	0.636 fold
S267D/H268D (antibody, human IgG1, kappa, HuAM4G7 anti-CD19 IgG1 (m1) with these Fc substitutions, EU index; copies: 2 + 2) heavy: not shown light: DIVMTQSPATLSLSPGERATLSCRSSKSLQNVNGNTYLYWFQQKPGQSPQLLIYRMSNLNSGVPDRFSGSGSGTEFTLTISSLEPEDFAVYYCMQHLEYPITFGAGTKLEIKRTVAAPSVFIFPPSDEQLKSGTASVVCLLNNFYPREAKVQWKVDNALQSGNSQESVTEQDSKDSTYSLSSTLTLSKADYEKHKVYACEVTHQGLSSPVTKSFNRGEC	1.86 fold	5.33 fold	–	–	–	–	–	–	–	–	14.2 fold	103 nM	0.902 fold	0.968 fold	0.598 fold	1.96 fold	–	–
S239D/H268D (antibody, human IgG1, kappa, HuAM4G7 anti-CD19 IgG1 (m1) with these Fc substitutions, EU index; copies: 2 + 2) heavy: not shown light: DIVMTQSPATLSLSPGERATLSCRSSKSLQNVNGNTYLYWFQQKPGQSPQLLIYRMSNLNSGVPDRFSGSGSGTEFTLTISSLEPEDFAVYYCMQHLEYPITFGAGTKLEIKRTVAAPSVFIFPPSDEQLKSGTASVVCLLNNFYPREAKVQWKVDNALQSGNSQESVTEQDSKDSTYSLSSTLTLSKADYEKHKVYACEVTHQGLSSPVTKSFNRGEC	–	8.68 fold	–	–	–	–	–	–	–	–	14.4 fold	102 nM	–	–	1.06 fold	–	2.21 fold	3.62 fold
S239D/S267D (antibody, human IgG1, kappa, HuAM4G7 anti-CD19 IgG1 (m1) with these Fc substitutions, EU index; copies: 2 + 2) heavy: not shown light: DIVMTQSPATLSLSPGERATLSCRSSKSLQNVNGNTYLYWFQQKPGQSPQLLIYRMSNLNSGVPDRFSGSGSGTEFTLTISSLEPEDFAVYYCMQHLEYPITFGAGTKLEIKRTVAAPSVFIFPPSDEQLKSGTASVVCLLNNFYPREAKVQWKVDNALQSGNSQESVTEQDSKDSTYSLSSTLTLSKADYEKHKVYACEVTHQGLSSPVTKSFNRGEC	1.79 fold	7.66 fold	–	–	–	–	–	–	–	–	22.3 fold	65.9 nM	1.98 fold	–	1 fold	–	1.88 fold	2.73 fold
L235D/S239D (antibody, human IgG1, kappa, HuAM4G7 anti-CD19 IgG1 (m1) with these Fc substitutions, EU index; copies: 2 + 2) heavy: not shown light: DIVMTQSPATLSLSPGERATLSCRSSKSLQNVNGNTYLYWFQQKPGQSPQLLIYRMSNLNSGVPDRFSGSGSGTEFTLTISSLEPEDFAVYYCMQHLEYPITFGAGTKLEIKRTVAAPSVFIFPPSDEQLKSGTASVVCLLNNFYPREAKVQWKVDNALQSGNSQESVTEQDSKDSTYSLSSTLTLSKADYEKHKVYACEVTHQGLSSPVTKSFNRGEC	–	–	–	–	–	–	–	–	–	–	4.11 fold	357 nM	–	–	–	–	1.57 fold	1.41 fold

— patent US20130315910A1 (Xencor, published 2013)
